The target of the assay is VEGF165 (UniProt P15692). Description: cell-based or functional assay.

These results are taken from patent US20070059314A1.

Sequence of VEGF165 (P15692 other isoform, or with tags, fused parts or gaps limits assumed): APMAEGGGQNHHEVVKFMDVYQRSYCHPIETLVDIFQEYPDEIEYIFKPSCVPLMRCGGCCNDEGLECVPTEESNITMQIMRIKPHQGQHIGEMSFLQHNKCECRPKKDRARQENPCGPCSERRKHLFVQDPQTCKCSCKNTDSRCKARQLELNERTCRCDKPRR

“C-terminal fragment of the NOV protein (amino acids 188 to 357) (from UniProt P48745 188-357)”: the HUAEC cell proliferation induced by 2 ng/ml VEGF165 (crystal violet, OD 595 nm) was 200 ng/mL.
